Columns and labels:
[1] = target: the molecule itself; assay: crystal structure; ChALDH apoenzyme, hanging drop at 4 °C, 20% PEG-100, 100 mM sodium/potassium phosphate pH 6.2, 200 mM NaCl; 3.18 Å
[2] = target: the molecule itself; assay: crystal structure; ChMDH with 5 mM NADP+, hanging drop at 4 °C, 25% PEG-1500, sodium propionate/sodium cacodylate/BIS-TRIS propane pH 7.0; 2.04 Å

B1: Cladosporium herbarum (aka Davidiella tassiana) aldehyde dehydrogenase (enzyme)
chain: MTSVQLETPHSGKYEQPTGLFINNEFVKGQEGKTFDVINPSDESVITQVHEATEKDVDIAVAAARKAFEGSWRQETPENRGKLLNNLANLFEKNIDLLAAVESLDNGKAISMAKGDISMCVGCLRYYGGWADKITGKVIDTTPDTFNYVKKEPIGVCGQIIPWNFPLLMWAWKIGPAIACGNTVVLKTAEQTPLGGLVAASLVKEAGFPPGVINVISGFGKVAGAALSSHMDVDKVAFTGSTVVGRTILKAAASSNLKKVTLELGGKSPNIVFEDADIDNAISWVNFGIFFNHGQCCCAGSRVYVQESIYDKFVQKFKERAQKNVVGDPFAADTFQGPQVSKVQFDRIMEYIQAGKDAGATVETGGKRKGDKGYFIEPTIFSNVTEDMKIVKEEIFGPVCSIAKFKTKEDAIKLGNASTYGLAAAVHTKNLNTAIEVSNALKAGTVWVNTYNTLHHQMPFGGYKESGIGRELGEDALANYTQTKTVSIRLGDALFG
notes: aldehyde dehydrogenase of Cladosporium herbarum (aka Davidiella tassiana), GenBank CAA55072.2; codon-optimised synthetic gene in pET-28a; Apoenzyme in the crystal; also called ChALDH; C. herbarum ALDH; source: E. coli BL21 (DE3), purified (Ni-NTA, size-exclusion chromatography); not shown: His-tag, N-terminal, cleaved
- stoichiometry N [1]: 4

B2: Cladosporium herbarum mannitol dehydrogenase (enzyme)
chain: MPGQQATKHESLLDQLSLKGKVVVVTGASGPKGMGIEAARGCAEMGAAVAITYASRAQGAEENVKELEKTYGIKAKAYKCQVDSYESCEKLVKDVVADFGQIDAFIANAGATADSGILDGSVEAWNHVVQVDLNGTFHCAKAVGHHFKERGTGSLVITASMSGHIANFPQEQTSYNVAKAGCIHMARSLANEWRDFARVNSISPGYIDTGLSDFVPKETQQLWHSMIPMGRDGLAKELKGAYVYFASDASTYTTGADLLIDGGYTTR
notes: codon-optimised synthetic gene in pET-28a; Crystallised in complex with NADP+; also called ChMDH; C. herbarum MDH; source: E. coli BL21 (DE3), purified (Ni-NTA, size-exclusion chromatography); not shown: His-tag, N-terminal, cleaved
- stoichiometry N [2]: 4

— article PMC9489553, “Biochemical and clinical studies of putative allergens to assess what distinguishes them from other non-allergenic proteins in the same family” (Transgenic Research, 2022)
